Assay: soluble on expression in E. coli; label from the status in PepcDB or PDB records

Sequence | soluble on expression in E. coli
MGHHHHHHSHMQHFKRTGTGTPVKRVRKAIEKSETTSEHTCQLCGGWFDTKIGLSNHVRGHLKRLGKTKWDAHKSPICVLNEMMQNEEKYEKILKALNSRRIIPRPFVAQKLASSDDFISQNVIPLEAYRNGLKTEALSVSASEEEGLNFLNEYDETKPELPSGKKNQSLTLIELLKNKRMGEERNSAISPQKIHNQTARKRFVQKCVLPLNEDSPLMYQPQKMDLTMHSALDCKQKKSRSRSGSKKKMLTLPHGADEVYILRCRFCGLVFRGPLSVQEDWIKHLQRHIVNANLPRTGAGMVEVTSLLKKPASITETSFSLLMAEAAS | not soluble
MGSDKIHHHHHHMLIHICCSVDNLYFLKKAKEAFAGEKIVGFFYNPNIHPYSEYLLRLEDVKRTCEMLGIELLEGDYELEKFLDKAKGKELLGEKSERCFECFDLRLEASALKAFELGEEKFTTTLLTSPKKDPNQLIAKGQHIAQRHNLEFVVFRNDNFEHFKSELDLNLQALARENELYRQNYCGCQFALKIQKESQNRSPFELYSPLKRQILPASIEERTQVFRELDAAKKDANKPFLAQKTIATYRLLNGGVWLSKNSNPLDCCILARSKSKAKVRINDLRWVFSQRLSALVGYSQRDETLFLTLEGLNTLMAKNYDNLKELNLNPLSYEEELSLRALVSGSESINPIIVLEERTEKTLFVEIKSIFQEEKVFYLL | not soluble
MAHHHHHHMGYTRERTNRHFFVARANAFFSRLPIARVQRSLAMEAVREGRMRPWKYTKEQILGAPVTCNFEYNPRPVRLIGTVMDAHTEETSIKGGLKVYARNEETNMMLWIPPGNPKLRHEVTSTKGSFQHYLDERDKWDEAWITGRARMK | not soluble
MELVSVAALAENRVIGRDGELPWPSIPADKKQYRSRVADDPVVLGRTTFESMRDDLPGSAQIVMSRSERSFSVDTAHRAASVEEAVDIAASLDAETAYVIGGAAIYALFQPHLDRMVLSRVPGEYEGDTYYPEWDAAEWELDAETDHEGFTLQEWVRSASSR | soluble
MGSDKIHHHHHHMKAMAMTPKPTAAIVGMGDAYASMQDRKDPIQLAVAATHKALADAGITKDQVDAVFTGRSPWADKRSQWSNIFCSHMHMPVTITSEITMHGAGLNATVAMAAQMIAAGRAQYVLCLQSDATELFVDAVAMGAEADADPQFEIPYGPTIPALYAQAACRYFHEFGITEEDLADVAIANQSWAMHHPHAAKARFGSIDRAKVLSSPYVATPLRRWMCSTWGGGTGGALVVTSVDNARTAQDPVYVMGYGSATTHEYLGDRMNMRRCRYPSLGAFPNLTHTATAEAARQAYESSGLTPADIDMAQISVNFAHMGPLIMEDLGFAAKGRGMDLYRAGRTGVDGDLPIDTNGGWLSFGQPGISCNMDSYAEAVRQLRGNALGRAPARRPRTVLVQGSGGMLAAGSVTILASEL | not soluble
MGHHHHHHSHMACKCDCKNKQCKCGDKCECSGDKCCEKYCCEEASEKKCCPAGCKGDCKCANCHCAEQKQCGDKTHQHQGTAAAH | not soluble
MGSDKIHHHHHHMTKNKLNQNSYELEKVKERIEQILSQFFPEQIMKDLPLYGKMLRVRLSILSFKNRGVEIGEDAISSLAALELVHLASLLHDDVIDGARFRRGKETINFMYGDKAAVAAGDLVLVSAFHTVEEIGNNKLRRAFLNVIGKMSEAELIEQLSRYKPITKEEYLRIVEGKSGALFGLALQLPALLEGELGEDLYNLGVTIGTIYQMFDDIMDFAGMEKIGKDGFLDLKNGVASFPLVTAMEKFPEARQMFENRDWSGLMSFMREKGILKECEETLKVLVKNVIIENSWLRDFVDGIFKIKISS | not soluble
GPGSMSTSAYRVASLLRQENNKLCSDKEKNTLARLTRDVEAFLDHAADVPPVVMETPYDDGETDLMEVHLSVVAGVLEPCEPASDVTAVDGVFMPTAKNHVAMDRKRVREAQAMLNLLGALSTDCNMPTASVAAATRCRLSLGSGEKADFESDDESIAVFDADELENDTSSSDGESNVHGRPPPRILELN | soluble
MPRVWKFGDQINTDDILPGKYAPFMVGEDRFHLYAFAHLRPEFAKEVRPGDILVFGRNAGLGSSREYAPEALKRLGIRAIIAKSYARIFFRNLVNLGIVPFESEEVVDALKDGDEVELDLESGVLTRGEERFLLRPPPPFLLEALKEGSLLDYYKKHGRFPGE | soluble
MAHHHHHHMPSAPTCQHGSYHQCECYGHNTQLPNYRHDISNPRTLQGYYAPNGGCPCPATCGAEKHGLYCSDRGADASAMPKLTFRAADGPHTVHSASDVDGNGRDPATSIRTAFPNSRNYGGTVAQRGPTTLSTRAQLSASRKARAEAKREERAQDRKNFLRGVLRDEMLARMDAEGKRAALEADTGLMGTHHGEEYEANQRAAGSMRGGLDSTSRDPDTVLTLGEQYREIMDELEYVADQPVGSKYNIIRLHYLVEEEDRLNRLRLQERIRKTAEAMQSKK | not soluble
GSVTVPEVIASEVISYAQEENLLRKYGTVIRTAGDVKYPILVKKAEANVNKKERTTDITETAIQFDEILLDPAEFDALATVTKKLLKMSGVPVEDIVVEELKKAYVRKEINYMFNGDDAGNENPGALAKKAVAFEKPVDLTAAGAGQKLYDALIEFKNTPVTEVMKKGRFIINRAALTAIEKMKTDDGFPLLRPFTQAEGGIGYQLVGYPVDWTDAADKKGEPDTPVLYFGDFSAFKIQEVIGALEIQKLVEKFSGKNQVGFQIYNLLDGQLVYSPFEPAVYRYEITKPVGG | not soluble
MSSNTTEHGEHFNESIVNEVILEDMKKNRIDHMKYLPGMETMEESDVMEQVITAMNAYDYDKYTEKDVRRALEHDNRTVEDFQALLSPAALPLLEEIAQAARVETRKHFGNSVYMFTPIYIANYCENYCIYCGFNCHNKIRRAQLNAEEIDKEMAAIAKTGLQEILILTGESRIKSDVKYIGEACKIARKYFKVIGLEVYPMNSDEYHYLHECGADYVTVFQETYNSDKYETLHLAGHKRIFPYRLNAQERALKGGMRGVGFAALLGLDDFRKDAFATGYHAWLLQRKYPHAEIAFSCPRLRPIINNDRINPMDVHEPQLLQVVCAYRLFMPFASITVSTRECERVRDNLVNIAATKISAGVSTGIGSHVEDIEDKGDDQFEISDGRSVDEVYQALLNHDLQPVMNDYVYL | not soluble
MSIRSGSRRLELPHLSFPGLLRMNIHKNARLTPLRREEMAVAVFGGRLTKAQAARLYGVSLKIVSRWTERFRISGRAAMTDRSSRPTRSPRQMGQDIVERILHLRRQRLTGKHIAMETGVSPATVSRILRRAKLSRMKDIDPVEPVIRYEYAEPGGLIHLDIKRLGRFERVGHRITGNRTRQSNTRGVGWEYVHVCIDDVSRIAFTDIFPDEKAIMPLEHHHHHH | not soluble
MRLNKRLPAALSGLLLSAALLAGCSTSGTAETTTTTVSSAAASTTTSTSSASSSSSSSSSSSSSDSSTTAETISNTAEAAQAFLSTLSTEEQDAVLYDYDAEEKSTGWSNFPVTFVQRSGVNLTDLTEEQQAAALNVLKNLLNDDAYQMIEDIMASDQYLNDESNTTEDSLGQYYIAFFGDPSSDSDWSIQFGGHHIGINTTFSDGAITFAPTHLGTQPSEWTNEDGETVAALSNMYETAFAFYDSLAEEQQAQLYQGEELDSMVCAPGSTCDYPTGTGLKGSDLTDEQKELLIDVIANWVGLADEETTETELDAIRETLDDTYINWSGATEYDTSTGDGIYFQISGPKVYIEFANQQGSAGADIDGVITAGWGHIHTIYRDPTNDYANSVTQEAASGMMGGGPGGNGGEMPSGDMPTGEMPSGAPSNLEHHHHHH | not soluble
MGSDKIHHHHHHMSDEKKSTDIDLKNLKAGGFIKERGKDLFTVRLRVPGGRMPVARLKKIAEVAEKYGQGMVHLSVRQSVELININFRDFDAVVAELGEGTQKVASCGARVRVPTACGGCEYNPNGLVDTQKSALEVDEKLFGTSTGHHKFKVGFAGCPFDCPKSATNDVGFQGAIWPVLYADECIGCGLCDKSCTEDAIVMGDDGKPRFIPENCLYCGDCLKVCPSEAWRAEKKGYTVRIGGKWGRRPLVGTLFAEFLPEEQVFDFIAAVLDWYKEKAEGQGRIRLGDVIRAEGPDALLGYLRERFPAAVVDATIPPQRIATQIGKEKRVP | not soluble
MMEGVRRAVAKFLRGGGVYEKAVDAFVKDLQRELIKADVNVKLVLNVTRRIKERALKEEPPPGVTRRDWMIKIVYEELVKLFGGDQEPQVDPPKTPWIVLLVGVQGSGKTTTAGKLAYYYVRRGYKVGLVSSDTHRPGAYEQLKRLAEEAGAMFYGEREGDPAEIARRGLEDLLSRGAEIVIVDTAGRHGHGEEARLLDEMKAIASKVRPDEVALVIDASIGQKAMGLAERFHKSTPIGSIIVTKMDGTARGGGALTAAAVTGARIKFIGTGETLGELEPFAPRRFVARILGMGDLESLLERIKSLEEAGELDRAAEDVLKGRITMRTIYRQLRAMRKLGPLGKVLQMLPGASMLASIDEGALKLGEEKMKRWMAIIESMTYEELDRPEIIDKRRMRRIAIGSGTSVDDVRELLVYYKNLKTMMKKLKRDKRLLRRLGMEL | soluble
TFKHSRDILGRTFDILVIDLSYDYSPNDLGRIIETVRGGGLIFVLTNPFEKWKDMWTGFHKSLVTPPYTIEDVKKRFNRRLIRKFTEHKGIYIVNTDRMSIERKPG | not soluble
QIIKDVVVWKTSLQDSDTPEKTLVFTATIKPGWHLYDQNLPEDGPTSTEFLFDKMTGAKLVGKAIPDKAPVNRYDKQFEMDLRWYEKTVSFRQKIQVTDPAKFSIKGGVRFMACNDENCLPPETSDFSFDASMIKSKAAAPDTEAEAAEAVAAETAADTTSQTDAAEALSSKADLWTPVVSELRAYGDDTLKQAESAPWKIFLYG | not soluble
MAHPPRLNDDKPVIWTVSVTRLFELFRDISLEFDHLANITPIQLGFEKAVTYIRKKLANERCDAIIAAGSNGAYLKSRLSVPVILIKPSGYDVLQALAKAGKLTSSIGVVTYQETIPALVAFQKTFNLRLDQRSYITEEDARGQINELKANGTEAVVGAGLITDLAEEAGMTGIFIYSAATVRQAFSDALDMTRMSLRHNTHDATRNALRTRYVLGDMLGQSPQMEQVRQTILLYARSSAAVLIEGETGTGKELAAQAIHREYFARHDARQGKKSHPFVAVNCGAIAESLLEAELFGYEEGAFTGSRRGGRAGLFEIAHGGTLFLDEIGEMPLPLQTRLLRVLEEKEVTRVGGHQPVPVDVRVISATHCNLEEDMQQGRFRRDLFYRLSILRLQLPPLRERVADILPLAESFLKVSLAALSAPFSAALRQGLQASETVLLHYDWPGNIRELRNMMERLALFLSVEPTPDLTPQFMQLLLPELARESAKTPAPRLLTPQQALEKFNGDKTAAANYLGISRTTFWRRLKS | not soluble
MGSDKIHHHHHHMQKSRPEQDVHEDIKILIQTHFGESGQGIHIEVKGDKVSLWGTVDSLAEKDFIGQRIGRIDGVKELDNSLTVANDGKITDKDIEKQVVERFAQSNFEEIMHLGCRASKGIVTLLGHLETQSSERLAKRIASQVRGVKEVRSEIDFLEKAVDDATLVNRVENALVASPWVNAHEIKTSARNGLITLTGMVNTQEEMEWAVDTAYQVPGVKAVVSEIFSRHRSQGEDLYMTEQLVRKLGQHGMTSQLVRAFVQDGIAYMTGEVYSDEDRRWAESMGQHVEGIKSINSSIKVAAHSSK | not soluble
MSEMSAIYRVKQYILNLIKDGELTNGSKLPSNLSIARALNVKTDDVYDGIDELITEQVVTDNFEEGTSVKVKPPFYYPLNKIISIGTMIKEAGYEAGTEYLNLDEQPATILDAEHLGIETKEPITIIERLRTANHKPVVYCLDKIAKTYLTCTDYQQSSGSMLEAIKASTNHQIMHAEMDLEAISYEPHISEVLNASPHEGLMLLKVVHYDEKHQPILYSLNYIKSSLVKFTITKSE | not soluble
